Laboratory results from US20090130710A1, “Enhancing vegetative protein production in transgenic plants using seed specific promoters” (priority 2005, published 2009).

Tests used:
[1] = tested on: transgenic tobacco leaves co-expressing ABI3 and α-L-iduronidase; experiment: IDUA activity in leaves of tobacco co-transformants incubated on culture media with ABA or stress chemicals; format: cell-based
Experimental: FIG. 6. Use of ABA to enhance human α-L-iduronidase activity in plants co-expressing ABI3 and α-L-iduronidase.
FIG. 10. The effects of different treatments designed to enhance endogenous ABA levels on human α-L-iduronidase activities. Leaves of selected tobacco co-transformants (plants co-expressing constructs a and c [Arc-IDUA/ABI3] and plants co-expressing constructs a and d [Arc-IDUA-KDEL/ABI3]) were incubated for 6 days in media containing the following chemicals: (1) polyethylene glycol, PEG; (2) mM NaCl; (3) mM sucrose; (4) mM mannitol, or the leaves were kept on medium at 4 degrees celsius.
(§1) Stably transformed plants were cultured in magenta boxes at 25° C. and sub-cultured every 3 months. Healthy, fully expanded leaves from 4-week plants were used in the present study.

[2] = tested on: transgenic tobacco leaves co-expressing construct (a) (the CnABI3 gene) and construct (b) (encoding GUS); experiment: GUS activity in transgenic tobacco leaves co-expressing CnABI3 and Vic-GUS; format: cell-based; conditions: increasing concentration of natural ABA up to 200 μM
Experimental: FIG. 4. Effect of natural S-(+)-ABA on recombinant bacterial β-glucuronidase (GUS) activities in transgenic tobacco leaves co-expressing construct (a) (the CnABI3 gene) and construct (b) (encoding GUS). […] There is a greater enhancement of GUS activities, with an increasing concentration of natural ABA up to 200 μM.
Transgenic tobacco plants were also generated by co-expressing the CnABI3 gene (construct a) and a gene construct containing the bacterial GUS gene coding region linked to a seed storage protein gene promoter—the vicilin gene promoter (construct b of FIG. 3) (Jiang et al., 1995).
as §1

[3] = tested on: tobacco leaves co-expressing Arc-IDUA/ABI3 or Arc-IDUA-KDEL/ABI3; experiment: Northern blot analysis of α-L-iduronidase mRNA in tobacco co-transformant leaves; format: cell-based; conditions: 100 μM S(+)-ABA, 6 days, compared to leaves in culture without ABA
From the text: FIG. 8. ABA acts at the transcriptional level to enhance the levels of human α-L-iduronidase.

[4] = tested on: tobacco leaves co-expressing Arc-IDUA/ABI3 or Arc-IDUA-KDEL/ABI3; experiment: Western blot of α-L-iduronidase protein in tobacco co-transformant leaves; format: cell-based; conditions: day 6 of incubation; Arc-IDUA/ABI3 and Arc-IDUA-KDEL/ABI3 leaves
Experimental: FIG. 9. Western blot showing the effects of ABA at different concentrations of the levels of human α-L-iduronidase protein at day 6 of incubation. As with the activity data (FIG. 7), leaves of selected tobacco co-transformants (plants co-expressing constructs a and c [Arc-IDUA/ABI3] and plants co-expressing constructs a and d [Arc-IDUA-KDEL/ABI3]) incubated for 6 days in increasing concentrations of S(+)-ABA, show the maximum α-L-iduronidase protein accumulation levels at 150 μM S(+)-ABA.

[5] = biological target: T1, α-L-iduronidase (IDUA) activity (Homo sapiens, UniProt P35475); experiment: IDUA specific activity after purification from transgenic Arabidopsis seeds (4MU formation); format: biochemical; conditions: for Units/mg (specific activity): units are nmoles 4MU formed per minute
T1 construct: arcelin-5-I (ARC5-I) signal peptide of Phaseolus vulgaris (N); made in house; host or cells: transgenic Arabidopsis thaliana T3 seeds (wild type and cgl mutant)
T1 sequence (P35475 28-653): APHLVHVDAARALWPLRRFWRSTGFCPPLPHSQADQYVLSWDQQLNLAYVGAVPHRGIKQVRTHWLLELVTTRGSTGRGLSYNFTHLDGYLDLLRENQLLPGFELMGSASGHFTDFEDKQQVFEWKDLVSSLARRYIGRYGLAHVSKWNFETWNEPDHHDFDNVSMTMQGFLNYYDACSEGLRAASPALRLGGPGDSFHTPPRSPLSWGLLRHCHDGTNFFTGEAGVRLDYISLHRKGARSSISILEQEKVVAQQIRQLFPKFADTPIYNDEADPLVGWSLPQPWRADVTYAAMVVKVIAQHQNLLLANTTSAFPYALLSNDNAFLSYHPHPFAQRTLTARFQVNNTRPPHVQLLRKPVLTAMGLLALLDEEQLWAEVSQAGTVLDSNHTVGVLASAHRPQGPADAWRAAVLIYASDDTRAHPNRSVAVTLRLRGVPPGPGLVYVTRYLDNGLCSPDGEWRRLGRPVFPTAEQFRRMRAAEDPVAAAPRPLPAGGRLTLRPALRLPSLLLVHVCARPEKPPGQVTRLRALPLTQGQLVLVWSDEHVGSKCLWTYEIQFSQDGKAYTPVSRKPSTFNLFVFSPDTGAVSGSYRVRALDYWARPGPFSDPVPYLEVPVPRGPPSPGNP
From the text: Table 1. Specific activities of Arabidopsis-derived α-L-iduronidase following purification of the recombinant enzyme from T3 seeds using a modified three-column procedure developed for extraction from human liver (Clements et al., 1989).

[6] = step Ab: combined elution fractions from antibody column
[7] = step BGel: combined elution fractions from Bio-Gel P100 column
[8] = step ConA: combined elution fractions from concanavalin A/Sepharose column
[9] = step Crude: clarified lysate (lipid removed)

Molecule	Units/mg (specific activity) [5, 6]	Units/mg (specific activity) [5, 7]	Units/mg (specific activity) [5, 8] [Units/mg]	Units/mg (specific activity) [5, 9] [Units/mg]	further results
CC1=CC(=O)CC(C)(C)[C@@]1(O)/C=C/C(C)=C\C(=O)O [ABA, S-(+)-ABA]	–	–	–	–	ABA concentration at which α-L-iduronidase activities reach a maximum ([1]; 6 days incubation in increasing concentrations, Arc-IDUA/ABI3 and Arc-IDUA-KDEL/ABI3 leaves): 150 µM; IDUA activities in leaves ([1]; ABA-treated leaves co-expressing ABI3 and IDUA-KDEL, 7 days of incubation): ≤ 16,000 pmol min^−1 mg^−1; enhancement of α-L-iduronidase activity versus transgenic control leaves (no ABA) ([1]; S(+)-ABA at 80 μM, day 7 of incubation, leaves co-expressing constructs a and d (Arc-IDUA-KDEL/ABI3)): ~58 fold; effect on recombinant GUS activities [2]: enhanced GUS activities; effect on steady-state mRNA levels encoding α-L-iduronidase [3]: enhanced steady-state mRNA levels; ABA concentration showing maximum α-L-iduronidase protein accumulation levels [4]: 150 µM
[Cl-].[Na+] [NaCl]	–	–	–	–	effect on α-L-iduronidase activities of treatments designed to enhance endogenous ABA levels ([1]; 6 days incubation, compared to ABA control (150 μM S(+)-ABA), NaCl 240 mM or 300 mM): dramatic effectiveness in enhancing α-L-iduronidase activities
IDUA derived from transgenic WT seeds: recombinant human α-L-iduronidase purified from transgenic Arabidopsis wild-type T3 seeds (protein, UniProt P35475 28-653, looked up, made in Arabidopsis seeds) Alpha-L-iduronidase: APHLVHVDAARALWPLRRFWRSTGFCPPLPHSQADQYVLSWDQQLNLAYVGAVPHRGIKQVRTHWLLELVTTRGSTGRGLSYNFTHLDGYLDLLRENQLLPGFELMGSASGHFTDFEDKQQVFEWKDLVSSLARRYIGRYGLAHVSKWNFETWNEPDHHDFDNVSMTMQGFLNYYDACSEGLRAASPALRLGGPGDSFHTPPRSPLSWGLLRHCHDGTNFFTGEAGVRLDYISLHRKGARSSISILEQEKVVAQQIRQLFPKFADTPIYNDEADPLVGWSLPQPWRADVTYAAMVVKVIAQHQNLLLANTTSAFPYALLSNDNAFLSYHPHPFAQRTLTARFQVNNTRPPHVQLLRKPVLTAMGLLALLDEEQLWAEVSQAGTVLDSNHTVGVLASAHRPQGPADAWRAAVLIYASDDTRAHPNRSVAVTLRLRGVPPGPGLVYVTRYLDNGLCSPDGEWRRLGRPVFPTAEQFRRMRAAEDPVAAAPRPLPAGGRLTLRPALRLPSLLLVHVCARPEKPPGQVTRLRALPLTQGQLVLVWSDEHVGSKCLWTYEIQFSQDGKAYTPVSRKPSTFNLFVFSPDTGAVSGSYRVRALDYWARPGPFSDPVPYLEVPVPRGPPSPGNP	9,033 Units/mg	14,700 Units/mg	29	6.3	specific activity of the enzyme ([5]; following chromatography on Bio-Gel P-100, purified from T3 seeds): 14,700 nmol 4 MU/min/mg TSP
IDUA derived from transgenic cg/mutant seeds: recombinant human α-L-iduronidase purified from transgenic Arabidopsis cgl mutant seeds (N-acetylglucosaminyl transferase I deficient) (protein, UniProt P35475 28-653, looked up, made in Arabidopsis cgl mutant seeds) Alpha-L-iduronidase: APHLVHVDAARALWPLRRFWRSTGFCPPLPHSQADQYVLSWDQQLNLAYVGAVPHRGIKQVRTHWLLELVTTRGSTGRGLSYNFTHLDGYLDLLRENQLLPGFELMGSASGHFTDFEDKQQVFEWKDLVSSLARRYIGRYGLAHVSKWNFETWNEPDHHDFDNVSMTMQGFLNYYDACSEGLRAASPALRLGGPGDSFHTPPRSPLSWGLLRHCHDGTNFFTGEAGVRLDYISLHRKGARSSISILEQEKVVAQQIRQLFPKFADTPIYNDEADPLVGWSLPQPWRADVTYAAMVVKVIAQHQNLLLANTTSAFPYALLSNDNAFLSYHPHPFAQRTLTARFQVNNTRPPHVQLLRKPVLTAMGLLALLDEEQLWAEVSQAGTVLDSNHTVGVLASAHRPQGPADAWRAAVLIYASDDTRAHPNRSVAVTLRLRGVPPGPGLVYVTRYLDNGLCSPDGEWRRLGRPVFPTAEQFRRMRAAEDPVAAAPRPLPAGGRLTLRPALRLPSLLLVHVCARPEKPPGQVTRLRALPLTQGQLVLVWSDEHVGSKCLWTYEIQFSQDGKAYTPVSRKPSTFNLFVFSPDTGAVSGSYRVRALDYWARPGPFSDPVPYLEVPVPRGPPSPGNP	2,700 Units/mg	7,800 Units/mg	8	2.04	–
